PMC3901155

Substrate: Nc1ncnc2c1ncn2[C@@H]1O[C@H](COP(=O)(O)O)[C@@H](OP(=O)(O)O)[C@H]1O
Experiment: purified protein
Format: biochemical, Rattus norvegicus
Settings: 5 mM p-nitrophenyl sulfate, pH 7.0, 37 °C

B1: AST-IV (Rattus norvegicus) (protein)
chain: MEFSRPPLVHVKGIPLIKYFAETIGPLQNFTAWPDDLLISTYPKSGTTWMSEILDMIYQGGKLEKCGRAPIYARVPFLEFKCPGVPSGLETLEETPAPRLLKTHLPLSLLPQSLLDQKVKVIYIARNAKDVVVSYYNFYNMAKLHPDPGTWDSFLENFMDGEVSYGSWYQHVKEWWELRHTHPVLYLFYEDIKENPKREIKKILEFLGRSLPEETVDSIVHHTSFKKMKENCMTNYTTIPTEIMDHNVSPFMRKGTTGDWKNTFTVAQNERFDAHYAKTMTDCDFKFRCEL
  Km: 25.3 µM
